Experimental data taken from patent US20100203046A1 (Biogen, published 2010).
Where two headings read alike, the source gives them in different places. One block for each binder: values may come before it.

What was measured:
[1] = molecular target: T1, human FcγRIII (CD16), CD16a (F158), on CD16-transfected Jurkat cells (human, UniProt P08637 17-254); experiment: CD16 bridging assay, transient
T1 construct: whole, on cells

[2] = molecular target: T2, human FcγRI (CD64) on IFNγ-activated U937 cells (human, UniProt P12314 16-374); experiment: CD64 bridging assay, purified
T2 construct: whole, on cells; also called FcγR1
T2 sequence (P12314 16-374): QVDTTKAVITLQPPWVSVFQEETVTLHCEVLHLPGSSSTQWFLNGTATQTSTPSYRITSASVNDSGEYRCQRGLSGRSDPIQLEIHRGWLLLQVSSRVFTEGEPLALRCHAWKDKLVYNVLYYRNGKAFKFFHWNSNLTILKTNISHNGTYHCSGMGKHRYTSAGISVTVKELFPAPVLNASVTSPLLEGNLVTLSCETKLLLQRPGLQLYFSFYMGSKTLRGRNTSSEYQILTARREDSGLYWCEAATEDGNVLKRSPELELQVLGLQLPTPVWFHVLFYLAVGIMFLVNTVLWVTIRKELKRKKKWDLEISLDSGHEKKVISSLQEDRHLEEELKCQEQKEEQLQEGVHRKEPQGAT

human C1q (Sigma C0660) [3] = molecular target: T3, human C1q (Sigma C0660) (human, UniProt P02745 23-245; P02746 28-253; P02747 29-245); experiment: C1q ELISA on CD2, purified
T3 construct: Bought protein; also called complement protein C1q
T3 sequence (P02745 23-245 limits assumed, chain 1 of 3): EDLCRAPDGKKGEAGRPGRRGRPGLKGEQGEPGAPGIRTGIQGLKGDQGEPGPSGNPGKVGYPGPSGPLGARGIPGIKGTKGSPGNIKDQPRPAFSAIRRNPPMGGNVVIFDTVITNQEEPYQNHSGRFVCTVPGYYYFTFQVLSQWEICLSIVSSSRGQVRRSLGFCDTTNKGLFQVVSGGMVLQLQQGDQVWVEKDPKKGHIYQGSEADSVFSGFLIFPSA
T3 sequence (P02746 28-253 limits assumed, chain 2 of 3): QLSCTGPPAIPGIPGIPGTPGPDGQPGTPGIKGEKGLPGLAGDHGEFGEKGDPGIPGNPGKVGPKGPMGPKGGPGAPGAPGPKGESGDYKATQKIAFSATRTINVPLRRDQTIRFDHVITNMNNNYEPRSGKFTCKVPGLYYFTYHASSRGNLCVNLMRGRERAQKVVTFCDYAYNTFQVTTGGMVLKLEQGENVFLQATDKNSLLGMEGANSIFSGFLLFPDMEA
T3 sequence (P02747 29-245 limits assumed, chain 3 of 3): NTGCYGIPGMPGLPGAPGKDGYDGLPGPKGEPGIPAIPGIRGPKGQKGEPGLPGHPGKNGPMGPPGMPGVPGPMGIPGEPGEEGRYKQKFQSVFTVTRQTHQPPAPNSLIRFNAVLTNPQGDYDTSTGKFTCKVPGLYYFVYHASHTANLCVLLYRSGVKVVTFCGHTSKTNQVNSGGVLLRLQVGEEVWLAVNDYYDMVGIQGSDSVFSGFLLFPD
Method: (§1) The C1q binding assay was performed by coating 96 well Maxisorb ELISA plates (Nalge-Nunc Rochester, N.Y., USA) with 50 μl recombinant soluble human CD2 at 10 μg/ml overnight at 4° C. in PBS. The wells were aspirated and washed three times with wash buffer (PBS, 0.05% Tween 20) and blocked for >1 h with 200 μ/well of block/diluent buffer (0.1 M Na₂HPO₄, pH 7, 0.1 M NaCl, 0.05% Tween 20, 0.1% gelatin). The antibody to be tested was diluted in block/diluent buffer starting at 15 μg/ml with 3-fold dilutions. 50 μl were added per well, and the plates incubated for 2 h at room temperature. After aspirating and washing as above, 50 μl/well of 2 μg/ml of Sigma human C1q (C0660) diluted in block/diluent buffer was added and incubated for 1.5 h at room temperature. After aspirating and washing as above, 50 μl/well of chicken anti human C1q (Cedarlane laboratories CL2101AP), diluted 2,000-fold in block/diluent buffer, was added. After incubation for 1.5 h at room temperature, the wells were aspirated and washed as above. 50 μl/well of donkey F(ab′)₂ anti chicken IgY HRP conjugate (Jackson ImmunoResearch 703-036-155) diluted to 1:5,000 in block/diluent was then added, and the wells incubated for 1 h at room temperature. After aspirating and washing as above, 100 μl TMB substrate (420 μM TMB, 0.004% H₂O₂ in 0.1 M sodium acetate/citric acid buffer, pH 4.9) was added and incubated for 2 min before the reaction was stopped with 100 μl 2 N sulfuric acid. The absorbance was read at 450 nm with a Softmax P instrument, and Softmax software was used to determine the relative binding affinity (C value) with a 4-parameter fit.

[4] = molecular target: T1, human FcγRIII (CD16), CD16a (F158), on …; experiment: CD16 bridging assay, transient; remark: listed apart in the source
human C1q (Sigma C0660) [5] = molecular target: T3, human C1q (Sigma C0660); experiment: C1q ELISA on CD2, transient
Method: as §1

[6] = molecular target: T1, human FcγRIII (CD16), CD16a (F158), on …; experiment: CD16 bridging assay, transient; remark: listed apart in the source

T1 sequence (P08637 17-254): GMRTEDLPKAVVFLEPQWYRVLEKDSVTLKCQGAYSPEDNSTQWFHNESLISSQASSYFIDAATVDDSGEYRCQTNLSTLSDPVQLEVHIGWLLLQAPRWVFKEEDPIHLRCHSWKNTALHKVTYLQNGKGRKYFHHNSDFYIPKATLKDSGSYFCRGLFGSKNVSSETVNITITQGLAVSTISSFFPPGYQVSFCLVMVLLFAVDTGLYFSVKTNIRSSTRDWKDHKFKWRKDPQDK

fold increase in binding vs WT [4]: 5 fold
B3: chCB6-huIgG1 I332D/A378F (antibody, name in EU numbering)
heavy: not shown
light: QIVLTQSPAIMSASPGEKVTMTCRASSSVSHMHWYQQKSGTSPKRWIYDTSKLASGVPARFSGSGSGTSYSLTISSVEAEDAATYYCQQWSSNPLTFGAGTKLELKRTVAAPSVFIFPPSDEQLKSGTASVVCLLNNFYPREAKVQWKVDNALQSGNSQESVTEQDSKDSTYSLSSTLTLSKADYEKHKVYACEVTHQGLSSPVTKSFNRGEC
notes: copies: 2 + 2

fold increase in binding vs WT (human C1q (Sigma C0660) [5]): 3 fold | binding result [6]: no binding
B4: chCB6-huIgG1 L251G (antibody, name in EU numbering)
heavy: not shown
light: B3 light
notes: copies: 2 + 2

fold increase in binding vs WT [4]: 5 fold
B6: chCB6-huIgG1 I332D/A378Y (antibody, name in EU numbering)
heavy: not shown
light: B3 light
notes: copies: 2 + 2

fold decrease in binding vs WT (human C1q (Sigma C0660) [3]): 3 fold
B8: chCB6-huIgG1 E294A (antibody, name in EU numbering)
heavy: not shown
light: B3 light
notes: copies: 2 + 2

binding result [1]: no binding
B10: chCB6-huIgG1 D265E (antibody, name in EU numbering)
heavy: not shown
light: B3 light
notes: copies: 2 + 2

fold decrease in binding vs WT [1]: 4 fold
B11: chCB6-huIgG1 E293D (antibody, name in EU numbering)
heavy: not shown
light: B3 light
notes: copies: 2 + 2

fold increase in binding vs WT [4]: 5 fold
B15: chCB6-huIgG1 S239D/A378F (antibody, name in EU numbering)
heavy: not shown
light: B3 light
notes: copies: 2 + 2

fold increase in binding vs WT [4]: 5 fold
B16: chCB6-huIgG1 S239D/A378K (antibody, name in EU numbering)
heavy: not shown
light: B3 light
notes: copies: 2 + 2

fold increase in binding vs WT (human C1q (Sigma C0660) [5]): 4 fold | binding result [6]: binds
B17: chCB6-huIgG1 A378K (antibody, name in EU numbering)
heavy: not shown
light: B3 light
notes: copies: 2 + 2

fold increase in binding vs WT (human C1q (Sigma C0660) [5]): 3 fold | fold increase in binding vs WT (human C1q (Sigma C0660) [3]): 2 fold | binding result [6]: binds
B18: chCB6-huIgG1 L251A (antibody, name in EU numbering)
heavy: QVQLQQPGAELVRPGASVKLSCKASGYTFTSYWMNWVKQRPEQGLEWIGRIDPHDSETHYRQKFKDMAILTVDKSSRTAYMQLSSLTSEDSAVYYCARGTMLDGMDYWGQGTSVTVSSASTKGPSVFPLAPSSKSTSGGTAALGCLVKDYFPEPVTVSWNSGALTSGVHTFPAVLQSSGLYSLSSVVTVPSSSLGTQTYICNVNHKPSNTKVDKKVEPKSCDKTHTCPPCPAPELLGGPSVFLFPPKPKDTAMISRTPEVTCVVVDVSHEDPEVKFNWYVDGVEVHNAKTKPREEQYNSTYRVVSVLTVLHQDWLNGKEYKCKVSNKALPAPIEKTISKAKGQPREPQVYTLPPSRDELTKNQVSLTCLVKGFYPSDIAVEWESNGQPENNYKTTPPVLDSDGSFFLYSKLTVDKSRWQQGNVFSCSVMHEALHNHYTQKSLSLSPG
light: B3 light
notes: copies: 2 + 2

fold increase in binding vs WT (human C1q (Sigma C0660) [5]): 4 fold | fold decrease in binding vs WT [6]: 4 fold
B19: chCB6-huIgG1 H435G (antibody, name in EU numbering)
heavy: not shown
light: B3 light
notes: copies: 2 + 2

fold decrease in binding vs WT [1]: 6 fold
B23: chCB6-huIgG1 K338M (antibody, name in EU numbering)
heavy: not shown
light: B3 light
notes: copies: 2 + 2

fold decrease in binding vs WT [1]: 4 fold
B24: chCB6-huIgG1 L234D (antibody, name in EU numbering)
heavy: not shown
light: B3 light
notes: copies: 2 + 2

fold decrease in binding vs WT (human C1q (Sigma C0660) [5]): 4 fold | fold decrease in binding vs WT (human C1q (Sigma C0660) [3]): 5 fold
B27: chCB6-huIgG1 Y296S (antibody, name in EU numbering)
heavy: not shown
light: B3 light
notes: copies: 2 + 2

fold decrease in binding vs WT [1]: 2 fold
B28: chCB6-huIgG1 Y296F (antibody, name in EU numbering)
heavy: not shown
light: B3 light
notes: copies: 2 + 2

fold increase in binding vs WT [1]: 3 fold | binding result [2]: binds | binding result (human C1q (Sigma C0660) [3]): binds
B29: chCB6-huIgG1 K334V (antibody, name in EU numbering)
heavy: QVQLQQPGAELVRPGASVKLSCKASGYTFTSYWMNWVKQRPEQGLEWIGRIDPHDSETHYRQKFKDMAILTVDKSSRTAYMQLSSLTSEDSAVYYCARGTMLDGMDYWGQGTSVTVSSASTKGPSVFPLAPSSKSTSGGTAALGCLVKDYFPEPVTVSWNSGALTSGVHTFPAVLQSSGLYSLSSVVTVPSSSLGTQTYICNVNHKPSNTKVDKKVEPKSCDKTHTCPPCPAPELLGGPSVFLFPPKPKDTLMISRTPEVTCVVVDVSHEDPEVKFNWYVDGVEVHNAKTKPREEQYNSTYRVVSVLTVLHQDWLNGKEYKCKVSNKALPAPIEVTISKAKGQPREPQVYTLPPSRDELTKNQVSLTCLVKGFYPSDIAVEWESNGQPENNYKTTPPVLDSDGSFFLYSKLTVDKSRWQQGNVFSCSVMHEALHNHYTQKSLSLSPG
light: B3 light
notes: copies: 2 + 2

fold increase in binding vs WT (human C1q (Sigma C0660) [5]): 4 fold | fold decrease in binding vs WT [6]: 5 fold
B33: chCB6-huIgG1 H435S (antibody, name in EU numbering)
heavy: not shown
light: B3 light
notes: copies: 2 + 2

fold decrease in binding vs WT [1]: 9 fold
B34: chCB6-huIgG1 F241H (antibody, name in EU numbering)
heavy: not shown
light: B3 light
notes: copies: 2 + 2

binding result (human C1q (Sigma C0660) [5]): binds | binding result [6]: binds
B35: chCB6-huIgG1 A378R (antibody, name in EU numbering)
heavy: not shown
light: B3 light
notes: copies: 2 + 2

binding result (human C1q (Sigma C0660) [5]): binds | fold decrease in binding vs WT [6]: 4 fold
B36: chCB6-huIgG1 H435A (antibody, name in EU numbering)
heavy: not shown
light: B3 light
notes: copies: 2 + 2

fold increase in binding vs WT [4]: 5 fold
B37: chCB6-huIgG1 I332D/A378W (antibody, name in EU numbering)
heavy: not shown
light: B3 light
notes: copies: 2 + 2

binding result [1]: binds | fold decrease in binding vs WT [2]: 5 fold | fold increase in binding vs WT (human C1q (Sigma C0660) [3]): 4 fold
B38: chCB6-huIgG1 K334R (antibody, name in EU numbering)
heavy: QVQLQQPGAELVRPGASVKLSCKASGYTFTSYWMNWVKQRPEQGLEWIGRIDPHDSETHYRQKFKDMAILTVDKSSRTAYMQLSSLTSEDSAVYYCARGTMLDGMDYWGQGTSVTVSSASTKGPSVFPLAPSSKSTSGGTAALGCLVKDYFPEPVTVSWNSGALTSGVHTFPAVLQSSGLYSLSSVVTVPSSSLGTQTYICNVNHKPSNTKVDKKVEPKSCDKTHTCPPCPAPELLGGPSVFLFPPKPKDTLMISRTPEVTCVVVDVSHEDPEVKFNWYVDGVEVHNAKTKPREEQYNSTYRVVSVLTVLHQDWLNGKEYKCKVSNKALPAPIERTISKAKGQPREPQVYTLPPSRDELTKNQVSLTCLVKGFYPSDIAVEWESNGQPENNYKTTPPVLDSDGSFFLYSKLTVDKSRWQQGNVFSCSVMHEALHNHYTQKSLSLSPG
light: B3 light
notes: copies: 2 + 2

binding result (human C1q (Sigma C0660) [5]): binds | fold decrease in binding vs WT [6]: 6 fold
B39: chCB6-huIgG1 A378H (antibody, name in EU numbering)
heavy: not shown
light: B3 light
notes: copies: 2 + 2

binding result [1]: binds | binding result [2]: binds | binding result (human C1q (Sigma C0660) [3]): binds
B40: chCB6-huIgG1 K334N (antibody, name in EU numbering)
heavy: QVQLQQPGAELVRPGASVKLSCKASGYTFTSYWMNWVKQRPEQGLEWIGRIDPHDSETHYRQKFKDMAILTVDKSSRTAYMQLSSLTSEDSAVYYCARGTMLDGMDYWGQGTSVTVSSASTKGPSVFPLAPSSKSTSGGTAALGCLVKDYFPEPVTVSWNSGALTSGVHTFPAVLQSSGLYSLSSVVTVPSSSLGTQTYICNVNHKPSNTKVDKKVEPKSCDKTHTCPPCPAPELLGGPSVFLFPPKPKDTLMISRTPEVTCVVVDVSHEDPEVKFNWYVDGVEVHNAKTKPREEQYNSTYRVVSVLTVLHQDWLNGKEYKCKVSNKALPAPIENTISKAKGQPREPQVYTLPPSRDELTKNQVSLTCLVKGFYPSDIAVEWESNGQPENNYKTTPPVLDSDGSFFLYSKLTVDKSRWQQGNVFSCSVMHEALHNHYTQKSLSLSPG
light: B3 light
notes: copies: 2 + 2

The remaining lines, values behind:

B1: chCB6-huIgG1 K334D (antibody, name in EU numbering)
heavy: not shown
light: B3 light
notes: copies: 2 + 2
binding result [1]: binds | binding result [2]: binds | binding result (human C1q (Sigma C0660) [3]): binds

B2: chCB6-huIgG1 K326D (antibody, name in EU numbering)
heavy: not shown
light: B3 light
notes: copies: 2 + 2
binding result [1]: binds | binding result [2]: binds | fold increase in binding vs WT (human C1q (Sigma C0660) [3]): 2 fold

B5: chCB6-huIgG1 K326Q (antibody, name in EU numbering)
heavy: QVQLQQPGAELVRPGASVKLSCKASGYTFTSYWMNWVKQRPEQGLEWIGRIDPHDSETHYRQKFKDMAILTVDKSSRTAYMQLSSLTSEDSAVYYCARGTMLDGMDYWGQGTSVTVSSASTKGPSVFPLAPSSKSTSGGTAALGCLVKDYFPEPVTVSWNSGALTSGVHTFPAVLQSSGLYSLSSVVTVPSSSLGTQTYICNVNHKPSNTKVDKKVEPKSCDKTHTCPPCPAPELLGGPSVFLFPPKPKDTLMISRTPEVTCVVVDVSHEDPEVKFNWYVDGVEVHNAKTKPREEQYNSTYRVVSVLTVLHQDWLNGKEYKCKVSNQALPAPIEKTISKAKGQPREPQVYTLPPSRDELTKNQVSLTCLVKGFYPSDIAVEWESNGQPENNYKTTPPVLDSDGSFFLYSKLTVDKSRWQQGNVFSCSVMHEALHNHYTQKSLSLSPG
light: B3 light
notes: copies: 2 + 2
binding result [1]: binds | binding result [2]: binds | binding result (human C1q (Sigma C0660) [3]): binds

B7: chCB6-huIgG1 D376H (antibody, name in EU numbering)
heavy: not shown
light: B3 light
notes: copies: 2 + 2
binding result (human C1q (Sigma C0660) [5]): binds | fold decrease in binding vs WT [6]: 6 fold

B9: chCB6-huIgG1 I332D/A378K (antibody, name in EU numbering)
heavy: not shown
light: B3 light
notes: copies: 2 + 2
binding result [4]: binds

B12: chCB6-huIgG1 I332D/H435G (antibody, name in EU numbering)
heavy: not shown
light: B3 light
notes: copies: 2 + 2
binding result [4]: binds

B13: chCB6-huIgG1 I332D/H435S (antibody, name in EU numbering)
heavy: not shown
light: B3 light
notes: copies: 2 + 2
binding result [4]: binds

B14: chCB6-huIgG1 A378Q (antibody, name in EU numbering)
heavy: not shown
light: B3 light
notes: copies: 2 + 2
binding result (human C1q (Sigma C0660) [5]): binds | binding result [6]: binds

B20: chCB6-huIgG1 K334E (antibody, name in EU numbering)
heavy: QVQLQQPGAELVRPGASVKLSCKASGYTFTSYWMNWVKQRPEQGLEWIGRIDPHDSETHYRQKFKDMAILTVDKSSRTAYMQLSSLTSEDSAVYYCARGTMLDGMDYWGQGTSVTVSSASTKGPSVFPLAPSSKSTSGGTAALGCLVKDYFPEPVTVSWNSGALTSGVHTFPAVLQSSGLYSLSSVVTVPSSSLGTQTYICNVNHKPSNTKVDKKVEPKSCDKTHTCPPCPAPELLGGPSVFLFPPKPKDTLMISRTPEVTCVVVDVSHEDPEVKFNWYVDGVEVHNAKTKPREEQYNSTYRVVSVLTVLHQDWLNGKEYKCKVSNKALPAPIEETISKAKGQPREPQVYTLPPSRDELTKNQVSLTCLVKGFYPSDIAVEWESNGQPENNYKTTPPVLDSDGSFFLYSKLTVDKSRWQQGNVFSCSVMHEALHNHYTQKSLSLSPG
light: B3 light
notes: copies: 2 + 2
binding result [1]: binds | binding result [2]: binds | binding result (human C1q (Sigma C0660) [3]): binds

B21: chCB6-huIgG1 E333D (antibody, name in EU numbering)
heavy: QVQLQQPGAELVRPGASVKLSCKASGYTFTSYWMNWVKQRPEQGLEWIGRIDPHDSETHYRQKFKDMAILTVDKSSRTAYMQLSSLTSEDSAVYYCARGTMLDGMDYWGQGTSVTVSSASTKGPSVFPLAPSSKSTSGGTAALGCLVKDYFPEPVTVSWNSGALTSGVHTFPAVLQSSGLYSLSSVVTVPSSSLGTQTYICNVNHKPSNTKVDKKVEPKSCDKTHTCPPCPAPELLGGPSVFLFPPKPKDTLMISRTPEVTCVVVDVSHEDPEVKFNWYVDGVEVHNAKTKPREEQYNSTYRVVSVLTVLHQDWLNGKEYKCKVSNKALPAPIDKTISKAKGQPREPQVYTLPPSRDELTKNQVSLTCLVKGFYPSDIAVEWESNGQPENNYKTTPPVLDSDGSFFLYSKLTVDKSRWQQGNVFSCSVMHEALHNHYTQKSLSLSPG
light: B3 light
notes: copies: 2 + 2
binding result [1]: binds | binding result [2]: binds | fold decrease in binding vs WT (human C1q (Sigma C0660) [3]): 2 fold

B22: chCB6-huIgG1 L251S (antibody, name in EU numbering)
heavy: not shown
light: B3 light
notes: copies: 2 + 2
binding result (human C1q (Sigma C0660) [5]): binds | binding result [6]: binds

B25: chCB6-huIgG1 K326E (antibody, name in EU numbering)
heavy: not shown
light: B3 light
notes: copies: 2 + 2
binding result [1]: binds

B26: chCB6-huIgG1 D376R (antibody, name in EU numbering)
heavy: not shown
light: B3 light
notes: copies: 2 + 2
binding result (human C1q (Sigma C0660) [5]): binds | fold decrease in binding vs WT [6]: 9 fold

B30: chCB6-huIgG1 K326N (antibody, name in EU numbering)
heavy: not shown
light: B3 light
notes: copies: 2 + 2
binding result [1]: binds

B31: chCB6-huIgG1 K334Q (antibody, name in EU numbering)
heavy: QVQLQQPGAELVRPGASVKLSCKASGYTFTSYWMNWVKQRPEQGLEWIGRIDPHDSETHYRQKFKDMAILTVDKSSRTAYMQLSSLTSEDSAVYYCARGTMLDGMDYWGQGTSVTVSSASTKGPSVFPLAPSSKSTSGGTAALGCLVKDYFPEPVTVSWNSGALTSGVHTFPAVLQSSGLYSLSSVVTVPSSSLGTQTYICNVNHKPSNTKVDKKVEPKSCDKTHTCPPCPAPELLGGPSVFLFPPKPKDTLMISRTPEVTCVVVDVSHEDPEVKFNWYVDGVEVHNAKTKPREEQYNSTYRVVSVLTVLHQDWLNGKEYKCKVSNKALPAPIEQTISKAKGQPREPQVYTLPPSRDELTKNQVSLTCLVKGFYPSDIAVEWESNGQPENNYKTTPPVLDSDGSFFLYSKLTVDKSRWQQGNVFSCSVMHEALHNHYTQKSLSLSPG
light: B3 light
notes: copies: 2 + 2
binding result [1]: binds | binding result [2]: binds | binding result (human C1q (Sigma C0660) [3]): binds

B32: chCB6-huIgG1 D270E (antibody, name in EU numbering)
heavy: not shown
light: B3 light
notes: copies: 2 + 2
binding result [1]: binds
